The supplement of paper PMC10065799, “High-throughput profiling of sequence recognition by tyrosine kinases and SH2 domains using bacterial peptide display” (eLife, 2023)

Tests used:
Fer (mouse) = assay: phosphorylation enrichment, bacterial display (enrichment ratio); higher = better substrate or ligand; peptides without Tyr show the background
MERTK = MERTK (UniProt Q12866); assay: as above
Fes = Fes (UniProt P07332); assay: as above
AncSZ = assay: as above
c-Src = assay: as above
FGFR3 = FGFR3 (UniProt P22607); assay: as above
FGFR1 = FGFR1 (UniProt P11362); assay: as above
c-Abl (mouse) = assay: as above
Jak2 = Jak2 (UniProt O60674); assay: as above
EPHB1 = EPHB1 (UniProt P54762); assay: as above
EPHB2 = EPHB2 (UniProt P29323); assay: as above
Fyn = Fyn (UniProt P06241); assay: as above
Hck = Hck (UniProt P08631); assay: as above
Grb2 SH2 = Grb2 SH2 (UniProt P62993); assay: SH2 binding enrichment of the phosphorylated peptide, bacterial display (enrichment ratio); higher = better substrate or ligand; peptides without Tyr show the background
SHP2-C SH2 = assay: as above
c-Src SH2 = assay: as above
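Wherever SH2 binding enrichment of the phosphorylated peptide, bacterial display is given: peptide library displayed on the E. coli surface as eCPX fusions, selected cells deep-sequenced, score is each peptide's frequency after selection divided by its frequency in the input.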
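Wherever phosphorylation enrichment, bacterial display is given: 11-residue human phosphosite peptides and single-mutation variants displayed on the E. coli surface, counted by deep sequencing, each peptide's frequency after selection divided by its frequency in the unselected input library; frequency after pTyr selection over input frequency; kinase dosed for 20-30% of maximal phosphorylation in three min.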

Sequence of Hck (P08631 whole entry, looked up): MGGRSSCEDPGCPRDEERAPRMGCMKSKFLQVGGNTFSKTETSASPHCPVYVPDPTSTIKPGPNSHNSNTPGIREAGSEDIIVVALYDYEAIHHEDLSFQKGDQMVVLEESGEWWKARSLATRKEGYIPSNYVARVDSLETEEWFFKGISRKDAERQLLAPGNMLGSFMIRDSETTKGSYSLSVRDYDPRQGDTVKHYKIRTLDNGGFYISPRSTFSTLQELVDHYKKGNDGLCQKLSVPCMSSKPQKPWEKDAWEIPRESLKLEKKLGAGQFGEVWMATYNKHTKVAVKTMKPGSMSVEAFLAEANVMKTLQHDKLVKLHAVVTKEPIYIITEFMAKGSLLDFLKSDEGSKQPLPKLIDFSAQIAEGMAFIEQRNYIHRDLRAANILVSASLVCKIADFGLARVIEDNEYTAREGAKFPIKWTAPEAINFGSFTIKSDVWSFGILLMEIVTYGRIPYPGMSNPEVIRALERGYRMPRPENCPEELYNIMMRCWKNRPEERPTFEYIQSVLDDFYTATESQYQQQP
Sequence of FGFR3 (P22607 whole entry, looked up): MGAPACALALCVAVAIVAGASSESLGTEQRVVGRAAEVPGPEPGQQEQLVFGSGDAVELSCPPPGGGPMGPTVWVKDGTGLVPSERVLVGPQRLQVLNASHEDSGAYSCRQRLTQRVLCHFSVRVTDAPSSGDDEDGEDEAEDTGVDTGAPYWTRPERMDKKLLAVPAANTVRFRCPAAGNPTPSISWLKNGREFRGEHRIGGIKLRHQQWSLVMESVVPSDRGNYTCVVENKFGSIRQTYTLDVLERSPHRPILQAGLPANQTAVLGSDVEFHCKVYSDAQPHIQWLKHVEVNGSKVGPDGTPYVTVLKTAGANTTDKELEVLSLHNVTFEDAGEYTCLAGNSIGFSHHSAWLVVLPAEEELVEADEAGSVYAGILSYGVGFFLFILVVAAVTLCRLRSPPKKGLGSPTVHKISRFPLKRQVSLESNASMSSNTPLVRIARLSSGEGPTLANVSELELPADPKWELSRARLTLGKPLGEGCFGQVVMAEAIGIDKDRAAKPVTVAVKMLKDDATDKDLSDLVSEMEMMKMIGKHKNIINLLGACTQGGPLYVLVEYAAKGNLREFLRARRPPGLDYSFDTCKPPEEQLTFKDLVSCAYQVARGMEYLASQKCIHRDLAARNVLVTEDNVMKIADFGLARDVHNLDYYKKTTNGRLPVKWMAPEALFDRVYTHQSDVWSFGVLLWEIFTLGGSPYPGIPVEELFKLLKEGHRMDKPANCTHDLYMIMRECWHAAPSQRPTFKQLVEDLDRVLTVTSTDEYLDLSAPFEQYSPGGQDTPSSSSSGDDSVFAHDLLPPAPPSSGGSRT
Sequence of FGFR1 (P11362 whole entry, looked up): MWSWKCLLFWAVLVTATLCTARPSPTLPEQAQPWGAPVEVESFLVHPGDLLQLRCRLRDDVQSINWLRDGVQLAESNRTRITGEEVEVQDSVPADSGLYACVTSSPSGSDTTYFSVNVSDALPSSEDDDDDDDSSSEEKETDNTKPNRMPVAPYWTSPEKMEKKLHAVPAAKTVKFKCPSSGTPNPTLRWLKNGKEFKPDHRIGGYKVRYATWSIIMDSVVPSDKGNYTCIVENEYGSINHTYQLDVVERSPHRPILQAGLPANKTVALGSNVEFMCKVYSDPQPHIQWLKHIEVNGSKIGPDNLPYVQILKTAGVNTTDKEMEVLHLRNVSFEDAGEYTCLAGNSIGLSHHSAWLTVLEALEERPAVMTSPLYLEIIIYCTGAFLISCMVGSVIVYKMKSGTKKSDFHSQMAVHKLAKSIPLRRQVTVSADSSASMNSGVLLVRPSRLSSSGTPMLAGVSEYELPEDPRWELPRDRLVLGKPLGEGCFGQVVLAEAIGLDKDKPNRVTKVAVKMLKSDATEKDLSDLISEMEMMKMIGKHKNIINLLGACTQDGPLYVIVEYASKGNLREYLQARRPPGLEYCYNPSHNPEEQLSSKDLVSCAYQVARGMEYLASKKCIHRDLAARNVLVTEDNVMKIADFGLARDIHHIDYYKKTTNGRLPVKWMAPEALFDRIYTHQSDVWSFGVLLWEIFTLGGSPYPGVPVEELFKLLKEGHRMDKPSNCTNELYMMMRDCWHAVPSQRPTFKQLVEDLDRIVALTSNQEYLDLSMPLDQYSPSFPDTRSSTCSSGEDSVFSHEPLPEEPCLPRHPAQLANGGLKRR
Sequence of Jak2 (O60674 whole entry, looked up): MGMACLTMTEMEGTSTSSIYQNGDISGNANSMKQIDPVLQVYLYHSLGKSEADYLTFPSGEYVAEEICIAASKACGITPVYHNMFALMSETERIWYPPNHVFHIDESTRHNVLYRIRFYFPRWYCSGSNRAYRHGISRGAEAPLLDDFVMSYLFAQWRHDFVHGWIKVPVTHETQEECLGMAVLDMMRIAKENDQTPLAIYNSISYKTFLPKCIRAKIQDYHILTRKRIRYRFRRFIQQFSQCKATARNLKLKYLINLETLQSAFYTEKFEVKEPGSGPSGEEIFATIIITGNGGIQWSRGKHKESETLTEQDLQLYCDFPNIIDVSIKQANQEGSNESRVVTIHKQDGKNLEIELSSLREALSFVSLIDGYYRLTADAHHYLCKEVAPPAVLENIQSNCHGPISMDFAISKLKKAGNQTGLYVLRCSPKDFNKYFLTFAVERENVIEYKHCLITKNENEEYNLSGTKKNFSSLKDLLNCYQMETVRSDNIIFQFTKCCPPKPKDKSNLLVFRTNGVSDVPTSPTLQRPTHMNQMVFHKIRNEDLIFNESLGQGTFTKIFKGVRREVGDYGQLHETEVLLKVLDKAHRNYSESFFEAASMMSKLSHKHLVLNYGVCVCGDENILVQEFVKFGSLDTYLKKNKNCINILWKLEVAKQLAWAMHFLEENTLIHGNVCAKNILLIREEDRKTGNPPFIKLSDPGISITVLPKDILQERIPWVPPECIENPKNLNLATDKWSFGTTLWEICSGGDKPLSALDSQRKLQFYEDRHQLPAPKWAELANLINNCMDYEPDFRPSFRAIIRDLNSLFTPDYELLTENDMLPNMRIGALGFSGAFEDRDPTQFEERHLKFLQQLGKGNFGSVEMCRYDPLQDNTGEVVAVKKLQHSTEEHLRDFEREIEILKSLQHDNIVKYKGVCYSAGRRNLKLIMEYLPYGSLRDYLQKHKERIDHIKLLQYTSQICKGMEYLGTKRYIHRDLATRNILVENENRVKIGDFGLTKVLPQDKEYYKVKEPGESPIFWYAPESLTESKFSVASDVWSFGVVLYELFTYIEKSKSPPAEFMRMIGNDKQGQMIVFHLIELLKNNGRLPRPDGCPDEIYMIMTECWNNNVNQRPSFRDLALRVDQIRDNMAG
Sequence of MERTK (Q12866 whole entry, looked up): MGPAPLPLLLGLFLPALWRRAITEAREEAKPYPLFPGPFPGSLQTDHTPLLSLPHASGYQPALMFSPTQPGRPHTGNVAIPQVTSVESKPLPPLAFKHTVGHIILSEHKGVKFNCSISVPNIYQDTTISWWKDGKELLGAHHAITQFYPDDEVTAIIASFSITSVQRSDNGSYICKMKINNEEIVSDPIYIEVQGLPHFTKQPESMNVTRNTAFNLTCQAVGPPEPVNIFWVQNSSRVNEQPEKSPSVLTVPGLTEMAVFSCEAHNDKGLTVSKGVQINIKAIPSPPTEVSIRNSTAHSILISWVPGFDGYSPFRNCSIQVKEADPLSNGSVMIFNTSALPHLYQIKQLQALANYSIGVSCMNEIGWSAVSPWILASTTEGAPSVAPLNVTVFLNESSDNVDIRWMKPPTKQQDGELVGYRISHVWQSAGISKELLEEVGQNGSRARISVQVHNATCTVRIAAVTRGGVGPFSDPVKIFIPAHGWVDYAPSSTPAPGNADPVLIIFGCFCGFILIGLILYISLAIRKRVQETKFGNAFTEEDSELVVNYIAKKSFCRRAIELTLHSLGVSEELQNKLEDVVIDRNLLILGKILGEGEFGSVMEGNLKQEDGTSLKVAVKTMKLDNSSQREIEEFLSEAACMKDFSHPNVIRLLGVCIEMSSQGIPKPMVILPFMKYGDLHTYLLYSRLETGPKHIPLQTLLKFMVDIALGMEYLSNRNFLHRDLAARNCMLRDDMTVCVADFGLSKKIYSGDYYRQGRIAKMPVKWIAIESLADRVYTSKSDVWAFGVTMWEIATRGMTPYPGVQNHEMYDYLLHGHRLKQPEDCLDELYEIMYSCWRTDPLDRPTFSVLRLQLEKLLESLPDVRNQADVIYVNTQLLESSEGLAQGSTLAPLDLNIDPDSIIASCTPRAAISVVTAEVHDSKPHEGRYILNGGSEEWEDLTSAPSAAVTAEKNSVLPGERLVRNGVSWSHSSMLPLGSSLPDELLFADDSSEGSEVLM
Sequence of Fyn (P06241 whole entry, looked up): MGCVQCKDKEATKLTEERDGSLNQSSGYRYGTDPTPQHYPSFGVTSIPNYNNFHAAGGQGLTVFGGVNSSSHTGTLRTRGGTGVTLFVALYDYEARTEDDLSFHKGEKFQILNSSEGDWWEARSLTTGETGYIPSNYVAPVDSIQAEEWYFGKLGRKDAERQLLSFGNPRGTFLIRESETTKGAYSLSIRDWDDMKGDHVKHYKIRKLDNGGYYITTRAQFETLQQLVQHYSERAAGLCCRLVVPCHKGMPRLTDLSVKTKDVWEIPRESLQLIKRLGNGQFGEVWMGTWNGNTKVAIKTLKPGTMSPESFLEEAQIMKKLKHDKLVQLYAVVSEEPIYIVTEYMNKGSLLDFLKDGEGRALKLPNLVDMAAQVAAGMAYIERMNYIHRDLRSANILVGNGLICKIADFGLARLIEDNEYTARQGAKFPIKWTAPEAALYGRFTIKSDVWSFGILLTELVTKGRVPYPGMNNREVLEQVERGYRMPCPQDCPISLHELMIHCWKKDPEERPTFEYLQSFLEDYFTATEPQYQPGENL

| Sequence | SH2 binding enrichment (Grb2 SH2) | SH2 binding enrichment (SHP2-C SH2) | SH2 binding enrichment (c-Src SH2) | phosphorylation enrichment (Fer (mouse)) | phosphorylation enrichment (MERTK) | phosphorylation enrichment (Fes) | phosphorylation enrichment (AncSZ) | phosphorylation enrichment (c-Src) | phosphorylation enrichment (FGFR3) | phosphorylation enrichment (FGFR1) | phosphorylation enrichment (c-Abl (mouse)) | phosphorylation enrichment (Jak2) | phosphorylation enrichment (EPHB1) | phosphorylation enrichment (EPHB2) | phosphorylation enrichment (Fyn) | phosphorylation enrichment (Hck) |
| --- | --- | --- | --- | --- | --- | --- | --- | --- | --- | --- | --- | --- | --- | --- | --- | --- |
| DVQNAYDSNHC [ZFYVE16_Y36] | 1.06 | 0.95 | 0.644 | 0.555 | 0.574 | 0.949 | 0.999 | 0.495 | 0.719 | 0.487 | 0.723 | 0.681 | 0.505 | 0.495 | 0.495 | 0.533 |
| RIDRKYKKVRF [F8_Y442_G439D] | 1.17 | 0.665 | 0.656 | 0.934 | 1.19 | 1 | 1.25 | 1.32 | 0.922 | 0.72 | 1.3 | 2.67 | 0.761 | 0.807 | 0.849 | 1.05 |
| LDMSQYFRLFN [CPT2_Y217] | 1.23 | 2.02 | 0.669 | 0.613 | 0.755 | 1.55 | 1.1 | 0.601 | 1.62 | 2.15 | 0.92 | 4.15 | 0.539 | 0.531 | 0.959 | 0.885 |
| KYLENYYDLEK [MMP3_Y41_K45E] | 0.702 | 0.736 | 1.08 | 0.664 | 0.819 | 1.3 | 1.64 | 2.2 | 6.66 | 8.94 | 0.818 | 1.2 | 9.73 | 4.75 | 5.37 | 1.83 |
| KGEDFYFVTCH [FHL1_Y149_C150Y_YF] | 0.743 | 0.345 | 0.392 | 0.588 | 0.491 | 1.57 | 1.26 | 0.468 | 0.946 | 0.62 | 0.9 | 1.49 | 0.709 | 0.788 | 0.451 | 0.503 |
| LSSEMYVKSYT [F5_Y2149] | 0.89 | 0.609 | 0.479 | 0.771 | 0.76 | 1.56 | 1.46 | 0.73 | 1.12 | 1.27 | 0.733 | 1.12 | 1.14 | 2.05 | 1.2 | 0.991 |
| ILGRFYETGSI [PAX2_Y73_YF] | 0.85 | 1.17 | 1.17 | 0.4 | 0.428 | 0.779 | 0.737 | 0.414 | 0.578 | 0.423 | 0.52 | 0.566 | 0.489 | 0.515 | 0.5 | 0.451 |
| GDAMLYYPSVS [GPR143_Y177_A173D] | 0.825 | 0.759 | 0.773 | 1.27 | 4.84 | 0.736 | 0.95 | 2.22 | 4.78 | 5.91 | 1.36 | 3.08 | 0.763 | 0.702 | 0.957 | 2.77 |
| HHIDFYKKTTN [FGFR1_Y654_YF] | 1.05 | 0.61 | 0.325 | 0.604 | 0.408 | 1.19 | 0.855 | 0.489 | 0.457 | 0.629 | 0.491 | 0.53 | 0.503 | 0.418 | 0.435 | 0.378 |
| HNVPICEGYAL [ACTC1_Y168_Y168C] | 0.833 | 0.779 | 0.587 | 0.499 | 0.505 | 1 | 0.86 | 0.668 | 0.841 | 0.732 | 0.652 | 0.895 | 0.801 | 0.513 | 0.434 | 0.916 |
| GGGMIYPLDLF | 0.959 | 0.562 | 0.556 | 0.534 | 0.688 | 1.02 | 0.913 | 0.515 | 0.637 | 0.503 | 0.804 | 0.941 | 0.527 | 0.496 | 0.6 | 0.551 |
| VKPRRYRPGTV [H3-5_Y41_H39R] | 0.835 | 0.514 | 0.576 | 0.463 | 0.577 | 0.542 | 0.622 | 0.608 | 0.466 | 0.53 | 0.512 | 0.588 | 0.56 | 0.51 | 0.58 | 0.5 |
| QYNPEYVQQAS [LRRC7_Y1058_H1054Y] | 1.06 | 1.47 | 0.431 | 0.939 | 0.635 | 1.28 | 1.16 | 0.508 | 1.05 | 0.854 | 1 | 0.995 | 0.687 | 0.802 | 0.707 | 0.831 |
| GDPTEYYITAI [IGSF22_Y501_S503I] | 0.647 | 0.478 | 0.374 | 0.611 | 0.399 | 1.1 | 1.95 | 0.703 | 2.6 | 2.91 | 0.809 | 1.38 | 0.594 | 0.647 | 0.598 | 0.562 |
| NKKFHYRELPV [ERN2_Y860_H858Y_YF] | 0.877 | 1.06 | 0.678 | 0.374 | 0.306 | 0.508 | 0.459 | 0.266 | 0.45 | 0.368 | 0.407 | 0.372 | 0.362 | 0.351 | 0.419 | 0.332 |
| VLTSKHRGGGG [HBA1_Y141_Y141H] | 1.02 | 0.751 | 0.823 | 0.222 | 0.677 | 0.396 | 0.486 | 0.344 | 0.419 | 0.464 | 0.418 | 0.332 | 0.318 | 0.225 | 0.527 | 0.322 |
| VVKTVYSLQPP [KNSTRN_Y87] | 0.803 | 1.03 | 0.441 | 0.387 | 2.61 | 0.817 | 0.862 | 2.46 | 0.525 | 0.458 | 0.777 | 0.681 | 0.571 | 0.45 | 2.59 | 1.17 |

Now from value to sequence, other results behind:

| SH2 binding enrichment (Grb2 SH2) | SH2 binding enrichment (SHP2-C SH2) | SH2 binding enrichment (c-Src SH2) | Sequence | phosphorylation enrichment (Fer (mouse)) | phosphorylation enrichment (MERTK) | phosphorylation enrichment (Fes) | phosphorylation enrichment (AncSZ) | phosphorylation enrichment (c-Src) | phosphorylation enrichment (FGFR3) | phosphorylation enrichment (FGFR1) | phosphorylation enrichment (c-Abl (mouse)) | phosphorylation enrichment (Jak2) | phosphorylation enrichment (EPHB1) | phosphorylation enrichment (EPHB2) | phosphorylation enrichment (Fyn) | phosphorylation enrichment (Hck) |
| --- | --- | --- | --- | --- | --- | --- | --- | --- | --- | --- | --- | --- | --- | --- | --- | --- |
| 0.851 | 0.577 | 0.546 | TLQIMYGCDVG [HLA-A_Y123_I119L] | 0.654 | 0.459 | 1.34 | 1.23 | 0.673 | 0.887 | 0.619 | 0.997 | 1.4 | 0.594 | 0.606 | 0.528 | 0.625 |
| 0.691 | 1.7 | 1.13 | EELLHYAIVTP [POC5_Y37] | 6.7 | 5.76 | 1.24 | 1.48 | 1.09 | 1.1 | 1.33 | 1.56 | 1.04 | 3.27 | 1.49 | 0.723 | 1.23 |
| 1.17 | 1.02 | 0.923 | RMDGTYACSYT [FLNB_Y704] | 0.617 | 0.757 | 1.02 | 0.934 | 3.25 | 0.579 | 0.538 | 1.47 | 0.92 | 0.876 | 0.85 | 1.87 | 1.74 |
| 1.2 | 1.01 | 0.705 | FVSIVYNDSGE [TSC2_Y1650] | 0.52 | 0.571 | 0.993 | 0.951 | 0.516 | 0.725 | 0.559 | 0.647 | 0.942 | 0.509 | 0.702 | 0.596 | 0.611 |
| 0.584 | 0.727 | 0.551 | VFAPDFIAGVS [NOB1_Y366_Y366F] | 0.392 | 0.469 | 1.02 | 0.69 | 0.501 | 0.619 | 0.664 | 0.709 | 0.775 | 0.52 | 0.479 | 0.436 | 0.435 |
| 0.885 | 0.764 | 0.428 | VFSSDYFSFVL [USP24_Y2138_YF] | 0.681 | 1.65 | 1.34 | 2.28 | 4.09 | 6.6 | 8.46 | 1.93 | 4.95 | 1.73 | 1.03 | 2.61 | 1.24 |
| 0.827 | 0.721 | 0.518 | GAVDTYCRHNY [HLA-DRB1_Y107_A102G] | 0.374 | 0.443 | 0.763 | 0.724 | 0.575 | 0.594 | 0.531 | 0.755 | 0.708 | 0.475 | 0.418 | 0.443 | 0.475 |
| 0.792 | 2.04 | 2.47 | QDRTYYERVRT [SPEN_Y633_S635R] | 2.62 | 0.629 | 0.728 | 0.947 | 1.79 | 0.697 | 0.749 | 0.639 | 0.556 | 0.732 | 0.767 | 1.35 | 5.76 |
| 1.09 | 0.755 | 0.752 | ARVDTYCRHNY [HLA-DRB1_Y107_A103R] | 0.812 | 0.538 | 1.09 | 0.825 | 0.468 | 0.698 | 0.582 | 0.797 | 0.798 | 0.6 | 0.583 | 0.552 | 0.502 |
| 0.722 | 0.524 | 0.48 | DLDLTSIFPNI [PTEN_Y27_Y27S_YF] | 0.441 | 0.447 | 0.814 | 0.861 | 0.358 | 0.578 | 0.301 | 0.677 | 0.726 | 0.402 | 0.485 | 0.475 | 0.497 |
| 0.801 | 0.465 | 0.383 | SGKSEYLLPVA [MYLK_Y611_R607G] | 0.45 | 0.397 | 0.89 | 1.08 | 0.453 | 0.554 | 0.456 | 1.17 | 0.721 | 0.486 | 0.424 | 0.453 | 0.362 |
| 0.768 | 0.622 | 0.413 | IDGLEYLHSQS [STK11_Y166_G171S] | 0.476 | 0.325 | 1.07 | 0.953 | 0.357 | 0.597 | 0.457 | 0.616 | 0.831 | 0.503 | 0.549 | 0.465 | 0.604 |
| 0.923 | 0.904 | 0.351 | PLTRSYIREKV [CYP2C8_Y243_A238P] | 0.262 | 0.406 | 0.413 | 0.582 | 0.448 | 0.48 | 0.341 | 0.305 | 0.591 | 0.276 | 0.484 | 0.474 | 0.312 |
| 0.892 | 0.708 | 0.645 | CPFNLYAEQLS [HGD_Y40_YF] | 0.636 | 0.769 | 1.37 | 1.15 | 0.696 | 0.698 | 0.577 | 0.77 | 0.935 | 1.16 | 0.816 | 0.642 | 0.772 |
| 1.74 | 3.79 | 2.38 | FQCKHYACIRQ [TIMP3_Y182_S179C_YF] | 0.379 | 0.414 | 0.72 | 0.542 | 0.393 | 0.501 | 0.341 | 0.634 | 0.508 | 0.378 | 0.35 | 0.365 | 0.445 |
| 0.912 | 0.707 | 0.632 | TISPFYCQSLF [CRYAA_Y48_R49C_YF] | 0.837 | 1.8 | 1.2 | 1.05 | 0.516 | 0.723 | 0.535 | 0.768 | 0.992 | 0.682 | 0.579 | 0.571 | 0.643 |
